Reference: US20240216484A1

Biological target: SARS-CoV-2 spike protein, extracellular domain (1-1213), recombinant from HEK293 cells (SARS-CoV-2) (UniProt P0DTC2)

HZI 2-09 (Anlec in TBS; lectin batch isolated from bromelain)
Kd: 8.25 µM | koff: 0.003 s⁻¹ | kon: 331 M⁻¹ s⁻¹
